This is an account of results in the Immune Epitope Database (IEDB).

One test deals with HLA-B*44:02. The test can be described thus: IEDB peptide-MHC binding, purified MHC/competitive/radioactivity; filed as Kd, often an IC50 or EC50 that approximates it; ≥ and ≤ were set here for values at or beyond the usual limits of such assays.
The next test addresses HLA-B*40:02. The test is described as above.
Another test concerns the target HLA-B*44:03. Described as above.
A further test deals with HLA-B*45:01. The test is described as above.
Test [1] deals with HLA-B*18:01. Described as above.
In test [2] the target is HLA-B*40:01. The description is as above.
Another test deals with HLA-A*32:01. Described as above.
The target of a further test is HLA-A*26:01. The description is as above.
Another test has as its target HLA-A*01:01. The test is described as above.
Another test has as its target HLA-A*30:01. The description is as above.
The next test has as its target HLA-A*29:02. The description is as above.
The target of the next test is HLA-A*30:02. Described as above.
In test [3] the target is HLA-B*18:01. Description: IEDB peptide-MHC binding, purified MHC/direct/fluorescence; filed as Kd, often an IC50 or EC50 that approximates it; ≥ and ≤ were set here for values at or beyond the usual limits of such assays.
The target of test [4] is HLA-B*40:01. The test is described as above. Conditions: source organism: Entamoeba histolytica HM-1:IMSS.
The mark [5] stands for this setting: source organism: SARS coronavirus Tor2.
Where [6] appears, read: source organism: Dengue virus 4 Philippines/H241/1956.
Where [7] appears, read: source organism: Dengue virus 1 Brazil/97-11/1997.
Setting [8] is: source organism: Mammarenavirus guanaritoense.
Setting [9] is: source organism: Dengue virus 3 Martinique/1243/1999.
[10] abbreviates: source organism: Mammarenavirus whitewaterense.
Setting [11] is: source organism: Vaccinia virus WR.
Where [12] appears, read: source organism: Dengue virus 1 Singapore/S275/1990.
Setting [13] is: source organism: Lymphocytic choriomeningitis virus (strain Armstrong).

GESVKTQFNY: the Kd was 479 nM with HLA-B*44:02 (setting [5]); 486 nM with HLA-B*40:02 (setting [5]); 295 nM with HLA-B*44:03 (setting [5]); 7630 nM in the test with HLA-B*45:01 (setting [5]); at least 20100 nM with HLA-B*18:01 [1] (setting [5]); 11600 nM in the test with HLA-B*40:01 [2] (setting [5]).
In the case of RELNGGAVT, the equilibrium dissociation constant (Kd) with HLA-B*44:02 (setting [5]) is 9110 nM; with HLA-B*40:02 (setting [5]), 21.9 nM; with HLA-B*44:03 (setting [5]) it was 7290 nM; in the test with HLA-B*45:01 (setting [5]), 43.9 nM; in the test with HLA-B*18:01 [1] (setting [5]), at least 53300 nM; with HLA-B*40:01 [2] (setting [5]), 212 nM.
Take SKGWKNWQEV: in the test with HLA-A*32:01 (setting [6]), the equilibrium dissociation constant (Kd) came out at 19800 nM.
With SKGWNDWQQV, the dissociation constant (Kd) in the test with HLA-A*32:01 (setting [7]) was at least 56200 nM.
Regarding FEVLAVEDT, the Kd in the test with HLA-B*44:02 (setting [5]) is at least 47900 nM; with HLA-B*40:02 (setting [5]), 1870 nM; in the test with HLA-B*44:03 (setting [5]), 13500 nM; with HLA-B*45:01 (setting [5]), 11600 nM; in the test with HLA-B*18:01 [1] (setting [5]) it was 3400 nM; with HLA-B*40:01 [2] (setting [5]) it was 10900 nM.
On to MLDDLTMGY, for which the equilibrium dissociation constant (Kd) in the test with HLA-A*26:01 (setting [8]) was 7290 nM; in the test with HLA-A*01:01 (setting [8]), 1.12 nM; with HLA-A*30:01 (setting [8]), 12900 nM; in the test with HLA-A*29:02 (setting [8]) it was 125 nM; in the test with HLA-A*32:01 (setting [8]), 2140 nM; with HLA-A*30:02 (setting [8]), 226 nM.
Turning to SAVPVHWVPT, the Kd with HLA-A*32:01 (setting [9]) was found to be 2000 nM.
The sequence RERGLALHV showed a dissociation constant Kd in the test with HLA-B*18:01 [3] (source organism: Salmonella enterica subsp. enterica serovar Typhimurium str. LT2) of 4500 nM.
As for SDEVARDLSL, the dissociation constant (Kd) is 5650 nM in the test with HLA-B*44:02 (setting [5]); 10600 nM with HLA-B*40:02 (setting [5]); 3870 nM in the test with HLA-B*44:03 (setting [5]); 262 nM with HLA-B*45:01 (setting [5]); at least 43200 nM in the test with HLA-B*18:01 [1] (setting [5]); 353 nM with HLA-B*40:01 [2] (setting [5]).
Consider WEILKFLITG, for which the Kd in the test with HLA-B*44:02 (setting [5]) is 8580 nM; with HLA-B*40:02 (setting [5]) it was 542 nM; with HLA-B*44:03 (setting [5]) it was 2930 nM; with HLA-B*45:01 (setting [5]) it was 1170 nM; in the test with HLA-B*18:01 [1] (setting [5]), at least 41600 nM; with HLA-B*40:01 [2] (setting [5]) it was 19000 nM.
With DLGLLYTAKY, the equilibrium dissociation constant (Kd) with HLA-A*26:01 (setting [10]) is 1000 nM; in the test with HLA-A*01:01 (setting [10]), 13700 nM; in the test with HLA-A*30:01 (setting [10]) it was at least 58400 nM; with HLA-A*29:02 (setting [10]), 386 nM; with HLA-A*32:01 (setting [10]) it was at least 69900 nM; in the test with HLA-A*30:02 (setting [10]), 36.9 nM.
For the sequence ILCYFILIF, the dissociation constant (Kd) with HLA-A*32:01 (setting [11]) came out at 11500 nM.
Same read-out and setting: the value for KSAHFLLIF was 0.185 nM.
Consider AEWVLAYMLF, for which the Kd in the test with HLA-B*44:02 (setting [5]) came out at 16.2 nM; with HLA-B*40:02 (setting [5]), 19.2 nM; in the test with HLA-B*44:03 (setting [5]), 9.16 nM; in the test with HLA-B*45:01 (setting [5]) it was 41 nM; in the test with HLA-B*18:01 [1] (setting [5]), 327 nM; with HLA-B*40:01 [2] (setting [5]), 152 nM.
On to MILFLKLLI, for which the Kd with HLA-A*32:01 (setting [11]) is 715 nM.
Consider AGILARWGSF, for which the Kd with HLA-B*44:02 (setting [12]) is 12600 nM; with HLA-A*32:01 (setting [12]), 1140 nM.
In the case of PDTTYLGPL, the equilibrium dissociation constant (Kd) in the test with HLA-B*44:02 (setting [13]) was at least 77900 nM; with HLA-B*40:02 (setting [13]) it was at least 77200 nM; in the test with HLA-B*44:03 (setting [13]), at least 78100 nM; with HLA-B*45:01 (setting [13]) it was at least 21900 nM; with HLA-B*18:01 [1] (setting [13]), at least 75300 nM; with HLA-B*40:01 [2] (setting [13]) it was at least 76100 nM.
LTLDIFYLF: in the test with HLA-A*32:01 (setting [11]), the dissociation constant (Kd) turned out to be 4.4 nM.
For IGILLTWLGL, in the test with HLA-A*32:01 (setting [7]), the dissociation constant (Kd) was at least 38800 nM.
For the sequence LLVWHTWQKQ, in the test with HLA-A*32:01 (setting [9]), the equilibrium dissociation constant (Kd) is at least 23300 nM.
WNTGFDWITD: the dissociation constant (Kd) with HLA-A*32:01 (setting [6]) came to 1150 nM.
Take REVEEIIKY: the Kd came out at 25.3 nM in the test with HLA-B*18:01 [3] (source organism: Entamoeba histolytica HM-1:IMSS) and 94.1 nM in the test with HLA-B*40:01 [4].
